From publication PMC6192639, “Generation and characterization of monoclonal antibodies that recognize human and murine supervillin protein isoforms” (PLoS ONE, 2018)
Where a chain is given by its changes, count along the chain named.

B1: murine monoclonal antibody clone 2G3 (hybridoma supernatant) (antibody, V domains shown)
VH: QIQLQQSGPELVKPGASVKISCKASAYTFTDYYINWVKQRPGQGLEWIGWIYPGSGNTKYNEKFKGKATLTVDTSSSTAYMQLSSLTSEDSAVYFCATGPFGGFAYWGQGTLVTVSA
VL: DIVMTQAAPSVPVTPGESVSISCRSSKSLLHSNGNTYLYWFLQRPGQSPQLLIYRMSNLASGVPDRFSGSGSGTAFALRISRVEAEDVGVYYCMQHLEYPLTFDAGTRLELK
notes: HC variable region of clone 2G3, partial CDS; mouse IgG1 heavy chain constant region (isotype IgG1 by isotyping kit); LC variable region of clone 2G3, partial CDS; mouse light chain constant region; mouse IgG1; Group 1; source: mouse hybridoma supernatant (Precision Antibody, Inc.)
B2: chimeric (rabbit Fc) monoclonal antibody 1E2 (CPTC-SVIL-1) (antibody, V domains shown)
VH: B1 VH with E10D, A26G, Y60F, K63R, G66D, T98S, Y106H
VL: B1 VL with H31Y, A77T, R79K, D104G, R108K
notes: HC variable region of clone 1E2 (as the heavy chain variable region of m4), partial CDS; LC variable region of clone 1E2 (as the light chain variable region of m4), partial CDS; mouse variable regions on rabbit IgG and rabbit kappa constant regions; Group 1; also called Rb 1E2; chimeric rabbit 1E2; source: HEK293, transient production, purified (protein A)
B3: chimeric (rabbit Fc) monoclonal antibody 4A8 (CPTC-SVIL-2) (antibody, V domains shown)
VH: EVQLQQSGAELVRPGASVKLSCTASGFNIKDDHMHWVKQRPEQGLEWIGWIDPENGDTEYASKFQDKATITADTSSNTAYLQFSSLTSEDTAVYYCTTGEFDNWGQGTTLTVSS
VL: B1 VL with V11I, E17Q, G73A, A77T, L101F, T102S, D104G, R108K
notes: HC variable region of clone 4A8 (as the heavy chain variable region of m7), partial CDS; LC variable region of clone 4A8 (as the light chain variable region of m7), partial CDS; mouse variable regions on rabbit IgG and rabbit kappa constant regions; Group 2; also called Rb 4A8; chimeric rabbit 4A8; source: HEK293, transient production, purified (protein A)

Legend:
[1] = target: T1, h340 linear peptide IENQRRGQELSATRQ (Homo sapiens); test: peptide or protein array; PEPperPRINT microarray of linear 15-residue h340 peptides (overlap 13), hybridoma supernatants diluted 1:10 and 1:1, 16 h at 4 C, anti-mouse IgG DyLight680; details: one partner purified
T1 construct: 15-residue peptide of human supervillin h340; numbers count on: hSV1; spot on a peptide microarray; source: printed peptide microarray (PEPperPRINT)
T1 chain: IENQRRGQELSATRQ

[2] = target: T2, h340 linear peptide ELSATRQAHDLSPAA (Homo sapiens); test: as above; details: one partner purified
T2 construct: 15-residue peptide of human supervillin h340; numbers count on: hSV1; spot on a peptide microarray; source: printed peptide microarray (PEPperPRINT)
T2 chain: ELSATRQAHDLSPAA

[3] = target: T3, endogenous human supervillin splice-form 4 (SV4) (human (endogenous in U2OS)); test: immunoblot; cell extracts (HeLa; U2OS with control or SVIL-specific dsRNA; mouse embryonic fibroblasts) on 5-15% SDS gels, nitrocellulose strips probed with hybridoma supernatants diluted 1:500; details: partners not purified
T3 construct: also called hSV4; source: endogenous, U2OS lysate

[4] = target: T4, human supervillin N-terminus, first 340 amino acids (h340) (Homo sapiens, UniProt O95425-2); test: BLI; Octet RED96e, 30 C, PBS-T; by the methods antibody coupled to AR2G sensors and h340 at about 2, 4, 8 and 16 nM, by the legend of Fig 3 surface-bound h340 and antibody in solution; 2:1 interaction model, global fit; KD as off-rate/on-rate; details: both partners purified
T4 construct: supervillin, human, first 340 amino acids of splice-form 1 (SV1); numbers count on: hSV1 (the ~205-kDa splice-form, not archvillin); also called h340 immunogen; h340 antigen; source: E. coli Rosetta2(DE3)pLysS, purified (glutathione-Sepharose 4B), cleaved from GST-h340 with PreScission Protease

[5] = target: T5, Flag-tagged human supervillin splice-form 4 (Flag-hSV4) (Homo sapiens, UniProt O95425-4, strain); test: immunostaining of cells or tissue; immunofluorescence, cells fixed with 4% PFA (in CSK buffer, CSK-PFA), Triton X-100; purified antibody 100 ug/ml; overexpressed tagged supervillins in RH30 cells, or endogenous supervillin in U2OS cells on fibronectin; details: one partner purified
T5 construct: source: RH30 cells, transfected, fixed

[6] = target: T6, EGFP-tagged human supervillin splice-form 4 (EGFP-hSV4) (Homo sapiens, UniProt O95425-4, strain); test: immunostaining of cells or tissue; immunofluorescence, cells fixed with cold methanol; purified antibody 100 ug/ml; overexpressed tagged supervillins in RH30 cells; details: one partner purified
T6 construct: source: RH30 cells, transfected, fixed
T6 sequence (O95425 whole entry, looked up, stated change not applied, canonical isoform): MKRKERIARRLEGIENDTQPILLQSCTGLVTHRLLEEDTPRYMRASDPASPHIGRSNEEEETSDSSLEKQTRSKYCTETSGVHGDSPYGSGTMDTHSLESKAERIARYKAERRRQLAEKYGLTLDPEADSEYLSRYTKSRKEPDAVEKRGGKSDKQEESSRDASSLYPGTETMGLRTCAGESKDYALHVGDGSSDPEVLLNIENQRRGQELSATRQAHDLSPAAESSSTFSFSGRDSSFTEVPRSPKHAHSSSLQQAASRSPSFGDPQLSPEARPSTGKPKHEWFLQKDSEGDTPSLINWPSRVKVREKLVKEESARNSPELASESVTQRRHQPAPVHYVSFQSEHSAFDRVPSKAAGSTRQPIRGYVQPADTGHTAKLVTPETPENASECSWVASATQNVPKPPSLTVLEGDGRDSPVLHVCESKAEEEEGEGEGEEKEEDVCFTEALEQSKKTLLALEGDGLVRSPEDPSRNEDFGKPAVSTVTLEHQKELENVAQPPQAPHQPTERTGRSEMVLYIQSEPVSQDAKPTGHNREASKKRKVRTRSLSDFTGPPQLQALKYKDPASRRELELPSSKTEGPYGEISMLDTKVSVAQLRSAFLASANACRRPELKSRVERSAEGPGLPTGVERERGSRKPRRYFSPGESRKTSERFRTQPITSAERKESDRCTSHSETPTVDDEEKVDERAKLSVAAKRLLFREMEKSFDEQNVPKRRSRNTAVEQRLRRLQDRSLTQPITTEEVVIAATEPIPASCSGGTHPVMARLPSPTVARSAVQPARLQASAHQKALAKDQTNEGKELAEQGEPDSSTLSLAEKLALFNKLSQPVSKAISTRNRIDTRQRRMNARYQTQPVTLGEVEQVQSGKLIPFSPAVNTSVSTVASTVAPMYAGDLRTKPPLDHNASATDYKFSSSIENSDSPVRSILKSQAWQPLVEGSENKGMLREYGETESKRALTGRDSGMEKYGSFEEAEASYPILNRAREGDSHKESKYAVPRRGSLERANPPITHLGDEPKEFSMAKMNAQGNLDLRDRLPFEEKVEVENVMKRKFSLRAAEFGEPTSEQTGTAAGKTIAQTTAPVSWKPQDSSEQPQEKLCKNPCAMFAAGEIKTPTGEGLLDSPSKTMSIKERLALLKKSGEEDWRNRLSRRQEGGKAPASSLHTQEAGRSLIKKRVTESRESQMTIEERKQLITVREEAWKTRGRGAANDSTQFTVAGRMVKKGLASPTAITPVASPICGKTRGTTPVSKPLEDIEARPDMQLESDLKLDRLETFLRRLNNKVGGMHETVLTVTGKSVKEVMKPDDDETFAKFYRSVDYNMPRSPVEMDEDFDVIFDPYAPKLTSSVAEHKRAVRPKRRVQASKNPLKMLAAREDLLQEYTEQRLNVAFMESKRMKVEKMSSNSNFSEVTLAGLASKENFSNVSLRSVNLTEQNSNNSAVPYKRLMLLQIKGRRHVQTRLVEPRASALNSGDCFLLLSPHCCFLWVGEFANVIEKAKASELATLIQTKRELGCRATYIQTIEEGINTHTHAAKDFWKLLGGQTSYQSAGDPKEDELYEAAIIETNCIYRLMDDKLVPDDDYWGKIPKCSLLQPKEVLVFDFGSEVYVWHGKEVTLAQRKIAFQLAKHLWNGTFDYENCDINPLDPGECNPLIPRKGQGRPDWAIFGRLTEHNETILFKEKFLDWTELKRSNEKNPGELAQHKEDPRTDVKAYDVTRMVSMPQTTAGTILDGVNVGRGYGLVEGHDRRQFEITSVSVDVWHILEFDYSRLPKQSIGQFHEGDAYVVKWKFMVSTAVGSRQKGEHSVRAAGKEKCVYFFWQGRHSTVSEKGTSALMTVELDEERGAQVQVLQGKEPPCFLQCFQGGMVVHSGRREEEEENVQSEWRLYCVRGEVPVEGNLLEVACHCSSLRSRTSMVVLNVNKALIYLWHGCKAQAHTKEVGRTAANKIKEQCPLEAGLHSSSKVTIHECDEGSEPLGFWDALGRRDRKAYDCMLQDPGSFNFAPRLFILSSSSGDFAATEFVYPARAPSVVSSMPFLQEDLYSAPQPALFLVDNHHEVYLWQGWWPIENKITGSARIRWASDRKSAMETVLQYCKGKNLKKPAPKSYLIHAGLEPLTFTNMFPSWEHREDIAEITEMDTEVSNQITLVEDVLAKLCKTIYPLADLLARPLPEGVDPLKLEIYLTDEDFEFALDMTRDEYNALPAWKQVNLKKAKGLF

T4 sequence (O95425 other isoform, or with tags, fused parts or gaps): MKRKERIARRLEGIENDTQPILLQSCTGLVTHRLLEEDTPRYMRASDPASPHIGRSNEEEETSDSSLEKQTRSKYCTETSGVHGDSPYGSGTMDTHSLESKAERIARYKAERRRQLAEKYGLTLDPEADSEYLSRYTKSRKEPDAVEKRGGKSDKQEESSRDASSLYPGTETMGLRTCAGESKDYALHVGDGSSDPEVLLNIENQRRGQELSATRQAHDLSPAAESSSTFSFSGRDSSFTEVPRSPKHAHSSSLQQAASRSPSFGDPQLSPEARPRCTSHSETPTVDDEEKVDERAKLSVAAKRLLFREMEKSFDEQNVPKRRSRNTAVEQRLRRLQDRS
T5 sequence (O95425 whole entry, looked up, stated change not applied, canonical isoform): as the sequence (O95425 whole entry, looked up, stated change not applied, canonical isoform) above

Binder	binding result [1]	binding result [2]	binding result [3]	Kd [4]	koff [4]	kon [4]	binding result [5]	binding result [6]
B1	binds	binds	binds					
B2				4.21 nM	0.000496 s⁻¹	118000 M⁻¹ s⁻¹	binds	
B3				0.73 nM	0.000296 s⁻¹	407000 M⁻¹ s⁻¹		binds
